B1: AIGH3-5: GH3 protein, accession XP_002869571 (protein, listed as Arabidopsis lyrata)
chain: MPEAPKKVSLEVFDLTLDQKNKQKLQLIEELTSNADQFQRRVLEEILSRNADVEYLRRHYLNGRTDRETFKNVMPVITYEDIQPEINRIANGDKSPILSSKPISEFLTSSGTSGGERKLMPTIEEELDRRSLLYSLLMPVMSQFVPGLENGKGMYFLFIKSESKTPGGLPARPVLTSYYKSSHFKERPYDPYTNYTSPNETILCSDSYQSMYSQMLCGLCQHQEVLRVGAVFASGFIRAIKFLEKHWTELVRDIRTGTLSSLITDPSVREAVSKILKPNSKLAEFVEFECKKSSWQGIITRLWPNTKYVDVIVTGTMSQYIPTLDYYSNGLPLVCTMYASSECYFGVNLRPLCKPSEVSYTLIPSMAYFEFLPVHRNNGVTNSINLPKALTEKEQQELVDLVDVKLGQEYELVVTTYAGLCRYRVGDLLRVTGFKNKAPQFSFICRKNVVLSIDADKTDEVELQNAVKNAVTYLVPFDASLSEYTSYADTSSIPGHYVLFWELCLDGNTPIPPSVFEDCCLTVEESFNTVYRQGRVSDKSIGPLEIKIVEPGTFDKLMDYAISLGASINQYKTPRCVKFAPIIELLNSRVVNSYLSPKCPKWVPGHKQWGSN
B2: AIGH3-3: GH3 protein, accession XP_002880486 (protein, listed as Arabidopsis lyrata)
chain: MTVDLPLRSPMNYSPSDKDVKALRFIEEMIRNVDFVQNKVIREILRRNSETEYLKRFGLKGFTDRKAFKTKVPVVTYDDLKPEIQRIANGDRSMILSSHPITEFLTSSGTSAGERKLMPTIEEDMDRRQLLYSLLMPVMNLYVPGLDKGKALYFLFVKTESKTPGGLPARPVLTSYYKSEQFKRRPYDPYNVYTSPNEAILCPDSSQSMYTQMLCGLLMRHEVLRLGAVFASGLLRAIGFLQTNWKELANDISTGTLSSRISDPAIKESMSKILTKPDQELADFITSVCGQDNNWEGIITKIWPNTKYLDVIVTGAMAQYIPMLEYYSGGLPMACTMYASSESYFGINLKPMCKPSEVSYTIMPNMAYFEFLPHEVPTGKSELVELADVEVGKEYELVITTYAGLNRYRVGDILQVTGFYNSAPQFKFVRRKNVLLSIESDKTDEAELQKAVENASVLLGEQGNRVIEYTSYAETKTIPGHYVIYWELLVKDQTNPPNDEVMARCCLEMEESLNSVYRQSRVADKSIGPLEIRVVKNGTFEELMDYAISRGASINQYKVPRCVSFTPIMELLDSRVVSTHFSPALPHWSPERRC
B3: AIGH3-2: GH3 protein, accession XP_002868993 (protein, listed as Arabidopsis lyrata)
chain: MAVDSPLQSRMVSPTTSEKDVKALKFIEEMTRNPDSVQEKVLGEILSRNSNTEYLKRFDINGAIDRNTFKNKVPVVTYEDLKPEIQRISNGDRSPILSSHPITEFLTSSGTSAGERKLMPTIEEDLDRRQLLYSLLMPVMNLYVPGLDKGKGLYFLFVKSESKTSGGLPARPVLTSYYKSDHFRRRPYDPYNVYTSPNEAILCSDSSQSMYAQMLCGLLMRHEVLRLGAVFASGLLRAISFLQNNWKELARDISTGTLSSRIFDPTIKNRMSKILIKPDQELAEFLIGVCSQENWEGIITKIWPNTKYLDVIVTGAMAQYIPTLEYYSGGLPMACTMYASSESYFGINLKPMCKPSEVSYTIMPNMAYFEFLPHNHDGDGATEASLDETSLVELADVEVGKEYELVITTYAGLYRYRVGDILRVTGFHNSAPQFKFIRRKNVLLSIESDKTDEAELQKAVENASRLFAEQGTRVIEYTSYAETKTIPGHYVIYWELLGRDQSNALPSEEVMAKCCLEMEESLNSVYRQSRVADKSIGPLEIRLVQNGTFEELMDYAISRGASINQYKVPRCVSFTPIMELLDSRVVSAHFSPSLPHWSPERRR
B4: AIGH3-6: GH3 protein, accession XP_002866046 (protein, listed as Arabidopsis lyrata)
chain: MPEAPKIVALEVSDESLAEKNKNKLQFIEDVTTNADDVQRRVLEEILSRNADVEYLKRHGLDGRTDRETFKHVMPVVTYEDIQPEINRIANGDKSQILCSNPISEFLTSSGTSGGERKLMPTIEEELDRRSLLYSLLMPVMNQFVPGLDKGKGMYFLFIKSESKTPGGLPARPVLTSYYKSSHFKNRPFDPYNNYTSPNQTILCSDSYQSMYSQMLCGLCQHKEVLRVGAVFASGFIRAIKFLEKHWSELARDIRTGTLSSEITDLSVREAVGEILKPDPKLADFVESECRKTSWQGIITRLWPNTKYVDVIVTGTMSQYIPTLDYYSNGLPLVCTMYASSECYFGVNLRPLCKPSEVSYTLIPNMAYFEFLPVHRNSGVTSSISLPKALTEKEQQELVDLVDVKLGQEYELVVTTYAGLYRYRVGDVLSVAGFKNNAPQFSFICRKNVALSIDSDKTDEVELQNAVKNAVTHLVPFDASLSEYTSYAETSSIPGHYVLFWELCLNGNTPIPPSVFEDCCLTIEESLNSVYRQGRVSDKSIGPLEIKMVESGTFDKLMDYAISLGASINQYKTPRCVKFAPIIELLNSRVVDSYFSPKCPKWAPGHKQWGSN
B5: AIGH3-4: GH3 protein, accession XP_002886679 (protein, listed as Arabidopsis lyrata)
chain: MAVDSPLQSRIASPTTSEKDMKALMFIEEMTRNPDSVQEKVLGEILSRNSNTEYLKRFDLNGAVDRKTFKSKVPVVMYEDLKTEIQRISNGDRSPILSSHPINEFLTSSGTSSGERKLMPTIEEDIHRRQLLGSLLMPVMNLYLPGLDKGKGLYFLFVKSESKTSGGLPARPALTSYYKSDHFKTSDLQNDYTSPREAILCSDSSQSMYAQMLCGLLMRHEVLRLGAVFPSGLLRAISFLQNNWKELAQDISTGILSSKIFDPAVNNRMSKILNKPDEELAEFLIGVCSQENWEGIITKIWPNTKYLDVIITGAMAQYIPMLEYYSGGLPIASTIYASSESYFGINLNPMCKPSEVSYTIMPNMAYFEFLPHNHDGDGALDETSLVELADVEVGKEYELVITTYAGLYRYRVGDILCVTGFHNSAPQFKFIRRKNVLLSIESDKTDEADLQKAVDNASRLLAEQGTSVIEYTSYAETKTIPGHYVIYWELLGRDQSNALPSDEVMAKCCLEMEESLNSVYRQSRVSDKSIGPLEIRVVQNGTFDELMDYAISRGSSINQYKVPRCVSLTPILELLDSRVVSAHFSTSLPHWSPERRH

The first data set can be described thus: LC-MS assay of GH3 conjugation of IAA with Asp or Glu. To be noted: conjugation of IAA with Asp by recombinant GH3 protein; IAA-Asp product by LC-MS. The class given is biochemical. The method, boiled down:
(§1)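 N-terminal His-tagged GH3 homologs, expressed in E. coli C41(DE3) and Ni-NTA purified, at 44 to 164 μg/mL incubated 3 h at 30 °C in 20 mM Tris-HCl pH 8.0, 5 mM MgCl2, 1 mM DTT, 5 mM ATP, 5 mM auxin (IAA, 2,4-D or dicamba) and 5 mM Asp or Glu. Conjugates quantified by LC-MS against standards after MeOH precipitation; kinetics from Michaelis-Menten fits of initial velocities.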
Consider B1, for which the “kcat (hrs−1) IAA-Asp” value was determined as 429.073 h⁻¹.
On the same count and under the same terms, the same measure for B2: 3315.262 h⁻¹; for B3: 583.500 h⁻¹.
For the molecule B4, the “kcat (hrs−1) IAA-Asp” value turned out to be 413.293 h⁻¹.
Consider B5, for which the “kcat (hrs−1) IAA-Asp” value is 3.013 h⁻¹.

Still in this data set, the particulars now being: conjugation of IAA with Glu by recombinant GH3 protein; IAA-Glu product by LC-MS.
For the molecule B1, the “kcat (hrs−1) IAA-Glu” value is 24.704 h⁻¹.
B2: the “kcat (hrs−1) IAA-Glu” value came to 71.865 h⁻¹.
Same read-out and setting: the same measure for B3: 13.953 h⁻¹; for B4: 20.881 h⁻¹.
The same measure, in the same setting: the same measure for B5: 0.000 h⁻¹.

The nature of another data set: LC-MS assay of GH3 conjugation of 2,4-D with Asp or Glu. The class given is biochemical. The following applies: conjugation of 2,4-D with Asp by recombinant GH3 protein; 2,4-D-Asp product by LC-MS; 5 mM 2,4-D substrate. The method, boiled down:
as §1
On to B1, for which the “kcat (hrs−1) 2,4-D-Asp” value is 1.586 h⁻¹.
Same read-out and setting: the same measure for B2: 1.566 h⁻¹; for B3: 1.903 h⁻¹.
B4: the “kcat (hrs−1) 2,4-D-Asp” value came to 1.300 h⁻¹.
Take B5: the “kcat (hrs−1) 2,4-D-Asp” value worked out at 0.040 h⁻¹.

Still in this data set, the particulars now being: conjugation of 2,4-D with Glu by recombinant GH3 protein; 2,4-D-Glu product by LC-MS; 5 mM 2,4-D substrate.
Consider B1, for which the “kcat (hrs−1) 2,4-D-Glu” value worked out at 0.421 h⁻¹.
For B2, the “kcat (hrs−1) 2,4-D-Glu” value was determined as 0.172 h⁻¹.
The same measure, in the same setting: the same measure for B3: 0.309 h⁻¹.
Still for that read-out and setting: the same measure for B4: 0.211 h⁻¹; for B5: 0.006 h⁻¹.

The values are drawn from patent US20150351390A1, “COMPOSITIONS AND METHODS FOR AUXIN-ANALOG CONJUGATION” (PIONEER HI-BRED INTERNATIONAL, INC., priority 2012, published 2015).
